Literature values, collected in article PMC4332414.
pKd: −log10 of the molar value.

Biological target: Collagen type II (UniProt P02458)
Assay: surface plasmon resonance

Chain of Collagen type II (P02458 182-1241): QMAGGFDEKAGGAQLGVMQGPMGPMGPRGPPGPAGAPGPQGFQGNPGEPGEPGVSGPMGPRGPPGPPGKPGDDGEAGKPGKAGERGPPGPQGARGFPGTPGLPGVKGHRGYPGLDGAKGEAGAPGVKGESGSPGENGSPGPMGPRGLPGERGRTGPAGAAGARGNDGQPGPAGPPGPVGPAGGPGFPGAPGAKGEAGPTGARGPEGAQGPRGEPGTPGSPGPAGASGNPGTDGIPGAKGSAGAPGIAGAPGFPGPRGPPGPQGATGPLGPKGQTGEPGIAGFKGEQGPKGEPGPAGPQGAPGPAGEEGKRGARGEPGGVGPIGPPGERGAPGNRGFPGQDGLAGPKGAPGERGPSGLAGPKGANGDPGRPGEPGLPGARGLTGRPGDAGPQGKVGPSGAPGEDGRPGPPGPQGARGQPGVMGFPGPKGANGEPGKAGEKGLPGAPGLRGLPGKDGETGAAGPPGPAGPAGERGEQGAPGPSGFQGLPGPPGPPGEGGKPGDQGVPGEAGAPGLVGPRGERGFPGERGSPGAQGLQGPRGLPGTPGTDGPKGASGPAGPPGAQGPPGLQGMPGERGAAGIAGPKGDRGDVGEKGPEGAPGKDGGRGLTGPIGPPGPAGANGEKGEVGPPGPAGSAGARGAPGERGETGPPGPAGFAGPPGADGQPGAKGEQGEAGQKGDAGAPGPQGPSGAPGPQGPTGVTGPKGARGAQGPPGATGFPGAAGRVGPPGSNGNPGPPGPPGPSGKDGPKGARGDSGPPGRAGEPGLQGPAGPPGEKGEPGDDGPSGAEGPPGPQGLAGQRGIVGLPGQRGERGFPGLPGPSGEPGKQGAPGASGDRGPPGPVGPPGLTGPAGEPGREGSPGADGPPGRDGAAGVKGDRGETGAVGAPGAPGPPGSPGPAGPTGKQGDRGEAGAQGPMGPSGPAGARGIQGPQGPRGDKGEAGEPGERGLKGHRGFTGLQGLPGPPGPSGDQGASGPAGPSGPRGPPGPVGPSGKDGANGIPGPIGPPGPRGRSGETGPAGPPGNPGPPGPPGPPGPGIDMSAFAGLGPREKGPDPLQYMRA
Chain of DDR2 DS domain (Q16832 30-185): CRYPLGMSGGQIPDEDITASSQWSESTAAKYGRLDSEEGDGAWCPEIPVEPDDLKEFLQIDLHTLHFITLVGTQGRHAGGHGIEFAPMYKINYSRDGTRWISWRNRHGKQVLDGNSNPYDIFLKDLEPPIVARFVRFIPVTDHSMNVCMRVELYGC

DDR2 DS domain (from UniProt Q16832)
pKd: 4.60
